Measured values reported in patent US20190248900A1 (Y BIOLOGICS, published 2019).

B1: PD1-45D6 (antibody, V domains shown)
VH: QVQLVESGGGVVQPGRSLRLSCAASGFTFSSYAMHWVRQVPGKGLEWVAVISYDGNDKYYADSVKGRFTISRDNSKNTLYLQMNSLRAEDTAVYYCVPTTFEYWGQGSQVTVSS
VL: DIVMTQTPLSLPVTPGEAASISCRSSQSLLDSDDGKTYLDWYLQKPGQSPQLLIYTLSYRASGVPDRFSGSGSGTEFNLRISRVEAEDVGIYYCMQRVEFPFTFGQGTKLDIK
notes: scFv-phage in the screening ELISA; whole IgG in the other assays
B2: PD1-52E8 (antibody, V domains shown)
VH: QVQLVQSGGNLVQPGRSLRLSCAASGFTFDDYAMHWVRQAPGKGLEWVSGISWNSGTPGYADSVQGRFTISRDNAKNSLYLQMNSLRAEDTAVYYCARGHNYLDSSYYDYWGQGTLVTVSS
VL: SYELTQPLSLSVAPGQTARITCSGDALSKEYSYWYQQKPGQAPVLVMYKDSERPSGIPERFSGSSSGTTVTLTISGVQAEDEADYYCQSVDSSDTSVVFGGGTKLTVL
notes: as for B1
B3: PD1-41C9 (antibody, V domains shown)
VH: QMQLVESGGGVVQPGRSLRLSCAASGFTFSSYAMHWVRQAPGKGLEWVAVISYDGSNKYYADSVKGRFTISRDNSKNTLYLQMNRLRSEDTAVYYCTTTTFDSWGQGTLITVSS
VL: DIVMTQTPLSLPVTPGEAASISCRSSQSLLDSEDGNTYLDWYLQKPGQSPQLLIYTLSHRASGVPDRFSGSGSGTDFTLKISRVAAEDVGLYYCLQRMGFPYTFGQGTKLDIK
notes: as for B1
B4: PD1-49A2 (antibody, V domains shown)
VH: QVQLVESGGGVVQPGRSLRLSCAASGFTFSSYAMHWVRQAPGKGLEWVAVISYDGSNKYYADSVKGRFTISRDNPKNTLYLQMNSLRAEDTAVYYCTTTTFDSWGRGTLVTVSS
VL: DIVMTQSPLSLPVTPGEPASISCRSSQSLFDSDDGNTYLDWYLQKPGQSPQLLIYTLSHRASGVPDRFSGSGSGTDFTLKISRVEAEDVGIYYCLQRMGFPYTFGQGTKVEIK
notes: scFv-phage in the screening ELISA; whole IgG in the other assays; also called Parent 49A2

Tests used:
[1] = target: T1, M2-1; assay: scFv-phage ELISA
T1 construct: also called PD1 mutant M2-1

[2] = target: T2, M14; assay: scFv-phage ELISA
T2 construct: also called PD1 mutant M14

[3] = target: T3, M7; assay: scFv-phage ELISA
T3 construct: also called PD1 mutant M7

[4] = target: T4, M1-2; assay: scFv-phage ELISA
T4 construct: also called PD1 mutant M1-2

[5] = target: T5, M7-1; assay: scFv-phage ELISA
T5 construct: also called PD1 mutant M7-1

[6] = target: T6, antigen PD1 (coated, construct not stated) (UniProt Q15116 25-170, limits assumed); assay: scFv-phage ELISA
T6 construct: also called PD1 antigen; PDCD1

[7] = target: T7, M4; assay: scFv-phage ELISA
T7 construct: also called PD1 mutant M4

[8] = target: T8, M6; assay: scFv-phage ELISA
T8 construct: also called PD1 mutant M6

[9] = target: T9, M12; assay: scFv-phage ELISA
T9 construct: also called PD1 mutant M12

[10] = target: T10, M2-2; assay: scFv-phage ELISA
T10 construct: also called PD1 mutant M2-2

[11] = target: T11, M5; assay: scFv-phage ELISA
T11 construct: also called PD1 mutant M5

[12] = target: T12, M2; assay: scFv-phage ELISA
T12 construct: also called PD1 mutant M2

[13] = target: T13, ITGA6-Fc; assay: scFv-phage ELISA
T13 construct: Fc fusion
T13 sequence (P23229 whole entry, species assumed, looked up): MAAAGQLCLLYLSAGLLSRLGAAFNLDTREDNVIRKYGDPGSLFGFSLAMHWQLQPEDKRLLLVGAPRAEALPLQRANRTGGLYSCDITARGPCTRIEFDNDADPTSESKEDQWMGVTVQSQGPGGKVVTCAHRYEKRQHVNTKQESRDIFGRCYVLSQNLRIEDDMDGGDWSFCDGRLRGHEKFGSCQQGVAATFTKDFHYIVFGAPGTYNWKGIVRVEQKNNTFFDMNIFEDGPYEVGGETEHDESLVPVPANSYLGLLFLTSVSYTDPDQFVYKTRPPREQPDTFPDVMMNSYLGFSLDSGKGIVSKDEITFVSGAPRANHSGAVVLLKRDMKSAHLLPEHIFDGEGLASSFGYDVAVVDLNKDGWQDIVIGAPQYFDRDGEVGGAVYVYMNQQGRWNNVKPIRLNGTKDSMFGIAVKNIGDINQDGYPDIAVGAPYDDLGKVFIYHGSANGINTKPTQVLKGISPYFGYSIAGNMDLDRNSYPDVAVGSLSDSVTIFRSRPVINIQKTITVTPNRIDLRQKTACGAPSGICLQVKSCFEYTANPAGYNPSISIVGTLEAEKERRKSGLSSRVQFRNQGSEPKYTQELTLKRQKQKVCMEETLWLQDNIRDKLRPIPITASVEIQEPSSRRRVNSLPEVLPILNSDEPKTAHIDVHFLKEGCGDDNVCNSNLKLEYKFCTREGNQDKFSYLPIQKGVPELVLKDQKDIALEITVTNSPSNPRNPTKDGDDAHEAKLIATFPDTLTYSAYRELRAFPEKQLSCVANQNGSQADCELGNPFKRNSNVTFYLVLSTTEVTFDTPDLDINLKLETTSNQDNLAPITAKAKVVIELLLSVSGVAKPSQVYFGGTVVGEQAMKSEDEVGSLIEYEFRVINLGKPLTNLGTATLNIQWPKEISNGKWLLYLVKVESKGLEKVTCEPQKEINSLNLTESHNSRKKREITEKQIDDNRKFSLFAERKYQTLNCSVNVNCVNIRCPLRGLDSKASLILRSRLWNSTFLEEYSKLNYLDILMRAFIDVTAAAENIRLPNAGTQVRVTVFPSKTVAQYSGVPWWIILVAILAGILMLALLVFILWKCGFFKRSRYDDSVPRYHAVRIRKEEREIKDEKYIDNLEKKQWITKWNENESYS

[14] = target: T14, M5-2; assay: scFv-phage ELISA
T14 construct: also called PD1 mutant M5-2

[15] = target: T15, M13; assay: scFv-phage ELISA
T15 construct: also called PD1 mutant M13

[16] = target: T16, M5-1; assay: scFv-phage ELISA
T16 construct: also called PD1 mutant M5-1

[17] = target: T17, M9; assay: scFv-phage ELISA
T17 construct: also called PD1 mutant M9

[18] = target: T18, M8; assay: scFv-phage ELISA
T18 construct: also called PD1 mutant M8

[19] = target: T19, M3; assay: scFv-phage ELISA
T19 construct: also called PD1 mutant M3

[20] = target: T20, M10; assay: scFv-phage ELISA
T20 construct: also called PD1 mutant M10

[21] = target: T21, M11; assay: scFv-phage ELISA
T21 construct: also called PD1 mutant M11

[22] = target: T22, M1; assay: scFv-phage ELISA
T22 construct: also called PD1 mutant M1

[23] = target: T23, PD1-hFc (human, UniProt Q15116 25-170); assay: SPR ProteOn XPR36, PD1-hFc immobilised, antibody as analyte
T23 construct: extracellular domain; also called PD1-hFc protein; Human PD-1-Fc (S1420, Y-Biologics)
Protocol: A ProteOn XPR36 (BioRad) instrument was used. The GLC sensor chip (BioRad) was mounted on the instrument and washed with PBST buffer, and the carboxymethyldextran surface was activated with an EDC/sulfo-NHS mixed solution. PD1-hFc dissolved at a concentration of 5 ug/ml in a 10 mM sodium acetate buffer solution (pH 5.0) was injected and immobilized on the GLC sensor chip.
In order to deactivate the activated carboxyl groups that remain unreacted with the PD1 protein, 1 M ethanolamine was flowed and 10 mM glycine (pH 2.0) was injected in order to wash proteins that remain unbound to the sensor chip.
The equilibrium dissociation constant (KD) was calculated by plotting and fitting the sensogram data in the equilibrium state depending on concentration.

T6 sequence (Q15116 25-170 limits assumed): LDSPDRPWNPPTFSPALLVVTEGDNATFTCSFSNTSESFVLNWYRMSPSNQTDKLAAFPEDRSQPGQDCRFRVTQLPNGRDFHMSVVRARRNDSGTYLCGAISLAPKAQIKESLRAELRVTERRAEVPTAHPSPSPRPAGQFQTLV
T23 sequence (Q15116 other isoform, or with tags, fused parts or gaps limits assumed): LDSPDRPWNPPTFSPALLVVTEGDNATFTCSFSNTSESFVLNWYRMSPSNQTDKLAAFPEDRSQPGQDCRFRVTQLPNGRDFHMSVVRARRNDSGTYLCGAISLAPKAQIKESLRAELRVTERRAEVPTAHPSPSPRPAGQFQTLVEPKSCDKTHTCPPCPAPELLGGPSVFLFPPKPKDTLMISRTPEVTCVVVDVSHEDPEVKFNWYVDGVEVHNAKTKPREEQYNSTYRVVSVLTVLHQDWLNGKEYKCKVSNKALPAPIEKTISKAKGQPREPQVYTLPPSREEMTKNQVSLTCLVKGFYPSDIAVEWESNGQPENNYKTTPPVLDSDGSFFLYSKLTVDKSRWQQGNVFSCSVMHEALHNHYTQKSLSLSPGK

Binder | OD490 [1] | OD490 [2] | OD490 [3] | OD490 [4] | OD490 [5] | OD490 [6] | OD490 [7] | OD490 [8] | OD490 [9] | OD490 [10] | OD490 [11] | OD490 [12] | OD490 [13] | OD490 [14] | OD490 [15] | OD490 [16] | OD490 [17] | OD490 [18] | OD490 [19] | OD490 [20] | other results
B1 | 3.9 | 3.9 | 0.5 | 3.9 | 1.3 | 3.8 | 3.9 | 3.9 | 3.9 | 3.8 | 3.6 | 0.4 | 0.5 | 3.9 | 4 | 3.8 | 3.8 | 3.8 | 3.8 | 3.9 | OD490 [21]: 0.7; OD490 [22]: 4; kon [23]: 270000 M⁻¹ s⁻¹
B2 | 2.9 | 2.6 | 1 | 3.6 | 1.1 | 0.4 | 3.7 | 3.4 | 3.2 | 3.4 | 0.5 | 0.2 | 0.1 | 3.5 | 3.9 | 0.3 | 2.4 | 0.6 | 1.5 | 1 | OD490 [21]: 0.2; OD490 [22]: 1.4
B3 | 3.4 | 3.5 | 0.8 | 3.2 | 1.2 | 3.2 | 3.2 | 3.6 | 3.1 | 3.2 | 2.3 | 0.8 | 0.5 | 3.6 | 3.6 | 2.8 | 3.3 | 2.5 | 2.3 | 3.4 | OD490 [21]: 0.9; OD490 [22]: 3.2
B4 | 3.7 | 3.9 | 0.4 | 3.8 | 0.5 | 3.6 | 3.9 | 3.9 | 3.9 | 3.8 | 1.2 | 0.3 | 0.2 | 3.8 | 3.9 | 0.7 | 3.7 | 3 | 3.4 | 2.6 | OD490 [21]: 0.4; OD490 [22]: 3; Kd [23]: 0.237 nM; koff [23]: 9.37e-05 s⁻¹; kon [23]: 395000 M⁻¹ s⁻¹
